B1: 4190326: IMAGE clone protein: Lyn, Yamaguchi sarcoma viral (vyes1) oncogene homolog (protein, UniProt P25911 2-512, looked up)
Tyrosine-protein kinase Lyn: GCIKSKRKDNLNDDEVDSKTQPVRNTDRTIYVRDPTSNKQQRPVPEFHLLPGQRFQTKDPEEQGDIVVALYPYDGIHPDDLSFKKGEKMKVLEEHGEWWKAKSLSSKREGFIPSNYVAKVNTLETEEWFFKDITRKDAERQLLAPGNSAGAFLIRESETLKGSFSLSVRDYDPMHGDVIKHYKIRSLDNGGYYISPRITFPCISDMIKHYQKQSDGLCRRLEKACISPKPQKPWDKDAWEIPRESIKLVKKLGAGQFGEVWMGYYNNSTKVAVKTLKPGTMSVQAFLEEANLMKTLQHDKLVRLYAVVTKEEPIYIITEFMAKGSLLDFLKSDEGGKVLLPKLIDFSAQIAEGMAYIERKNYIHRDLRAANVLVSESLMCKIADFGLARVIEDNEYTAREGAKFPIKWTAPEAINFGCFTIKSDVWSFGILLYEIVTYGKIPYPGRTNADVMSALSQGYRMPRMENCPDELYDIMKMCWKEKAEERPTFDYLQSVLDDFYTATEGQYQQQP
B2: 4013934: IMAGE clone protein: Ephb4, Eph receptor B4 (protein, UniProt P54761 16-987, looked up)
Ephrin type-B receptor 4: LEETLLNTKLETADLKWVTYPQAEGQWEELSGLDEEQHSVRTYEVCDMKRPGGQAHWLRTGWVPRRGAVHVYATIRFTMMECLSLPRASRSCKETFTVFYYESEADTATAHTPAWMENPYIKVDTVAAEHLTRKRPGAEATGKVNIKTLRLGPLSKAGFYLAFQDQGACMALLSLHLFYKKCSWLITNLTYFPETVPRELVVPVAGSCVANAVPTANPSPSLYCREDGQWAEQQVTGCSCAPGYEAAESNKVCRACGQGTFKPQIGDESCLPCPANSHSNNIGSPVCLCRIGYYRARSDPRSSPCTTPPSAPRSVVHHLNGSTLRLEWSAPLESGGREDLTYAVRCRECRPGGSCLPCGGDMTFDPGPRDLVEPWVAIRGLRPDVTYTFEVAALNGVSTLATGPPPFEPVNVTTDREVPPAVSDIRVTRSSPSSLILSWAIPRAPSGAVLDYEVKYHEKGAEGPSSVRFLKTSENRAELRGLKRGASYLVQVRARSEAGYGPFGQEHHSQTQLDESESWREQLALIAGTAVVGVVLVLVVVIIAVLCLRKQSNGREVEYSDKHGQYLIGHGTKVYIDPFTYEDPNEAVREFAKEIDVSYVKIEEVIGAGEFGEVCRGRLKAPGKKESCVAIKTLKGGYTERQRREFLSEASIMGQFEHPNIIRLEGVVTNSVPVMILTEFMENGALDSFLRLNDGQFTVIQLVGMLRGIASGMRYLAEMSYVHRDLAARNILVNSNLVCKVSDFGLSRFLEENSSDPTYTSSLGGKIPIRWTAPEAIAFRKFTSASDAWSYGIVMWEVMSFGERPYWDMSNQDVINAIEQDYRLPPPPDCPTSLHQLMLDCWQKDRNARPRFPQVVSALDKMIRNPASLKIVARENGGASHPLLDQRQPHYSAFGSVGEWLRAIKMGRYEESFAAAGFGSFEVVSQISAEDLLRIGVTLAGHQKKILASVQHMKSQAKPGAPGGTGGPAQQF
B3: 4238984: IMAGE clone protein: Kdr, kinase insert domain protein receptor (protein, UniProt P35918 20-1345, looked up)
Vascular endothelial growth …: ASVGLPGDFLHPPKLSTQKDILTILANTTLQITCRGQRDLDWLWPNAQRDSEERVLVTECGGGDSIFCKTLTIPRVVGNDTGAYKCSYRDVDIASTVYVYVRDYRSPFIASVSDQHGIVYITENKNKTVVIPCRGSISNLNVSLCARYPEKRFVPDGNRISWDSEIGFTLPSYMISYAGMVFCEAKINDETYQSIMYIVVVVGYRIYDVILSPPHEIELSAGEKLVLNCTARTELNVGLDFTWHSPPSKSHHKKIVNRDVKPFPGTVAKMFLSTLTIESVTKSDQGEYTCVASSGRMIKRNRTFVRVHTKPFIAFGSGMKSLVEATVGSQVRIPVKYLSYPAPDIKWYRNGRPIESNYTMIVGDELTIMEVTERDAGNYTVILTNPISMEKQSHMVSLVVNVPPQIGEKALISPMDSYQYGTMQTLTCTVYANPPLHHIQWYWQLEEACSYRPGQTSPYACKEWRHVEDFQGGNKIEVTKNQYALIEGKNKTVSTLVIQAANVSALYKCEAINKAGRGERVISFHVIRGPEITVQPAAQPTEQESVSLLCTADRNTFENLTWYKLGSQATSVHMGESLTPVCKNLDALWKLNGTMFSNSTNDILIVAFQNASLQDQGDYVCSAQDKKTKKRHCLVKQLIILERMAPMITGNLENQTTTIGETIEVTCPASGNPTPHITWFKDNETLVEDSGIVLRDGNRNLTIRRVRKEDGGLYTCQACNVLGCARAETLFIIEGAQEKTNLEVIILVGTAVIAMFFWLLLVIVLRTVKRANEGELKTGYLSIVMDPDELPLDERCERLPYDASKWEFPRDRLKLGKPLGRGAFGQVIEADAFGIDKTATCKTVAVKMLKEGATHSEHRALMSELKILIHIGHHLNVVNLLGACTKPGGPLMVIVEFCKFGNLSTYLRGKRNEFVPYKSKGARFRQGKDYVGELSVDLKRRLDSITSSQSSASSGFVEEKSLSDVEEEEASEELYKDFLTLEHLICYSFQVAKGMEFLASRKCIHRDLAARNILLSEKNVVKICDFGLARDIYKDPDYVRKGDARLPLKWMAPETIFDRVYTIQSDVWSFGVLLWEIFSLGASPYPGVKIDEEFCRRLKEGTRMRAPDYTTPEMYQTMLDCWHEDPNQRPSFSELVEHLGNLLQANAQQDGKDYIVLPMSETLSMEEDSGLSLPTSPVSCMEEEEVCDPKFHYDNTAGISHYLQNSKRKSRPVSVKTFEDIPLEEPEVKVIPDDSQTDSGMVLASEELKTLEDRNKLSPSFGGMMPSKSRESVASEGSNQTSGYQSGYHSDDTDTTVYSSDEAGLLKMVDAAVHADSGTTLRSPPV
B4: 4239139: IMAGE clone protein: Fgfr4, fibroblast growth factor receptor 4 (protein, UniProt Q03142 17-799, looked up)
Fibroblast growth factor …: LSLEASEEMEQEPCLAPILEQQEQVLTVALGQPVRLCCGRTERGRHWYKEGSRLASAGRVRGWRGRLEIASFLPEDAGRYLCLARGSMTVVHNLTLLMDDSLTSISNDEDPKTLSSSSSGHVYPQQAPYWTHPQRMEKKLHAVPAGNTVKFRCPAAGNPMPTIHWLKDGQAFHGENRIGGIRLRHQHWSLVMESVVPSDRGTYTCLVENSLGSIRYSYLLDVLERSPHRPILQAGLPANTTAVVGSDVELLCKVYSDAQPHIQWLKHVVINGSSFGADGFPYVQVLKTTDINSSEVEVLYLRNVSAEDAGEYTCLAGNSIGLSYQSAWLTVLPEEDLTWTTATPEARYTDIILYVSGSLVLLVLLLLAGVYHRQVIRGHYSRQPVTIQKLSRFPLARQFSLESRSSGKSSLSLVRGVRLSSSGPPLLTGLVNLDLPLDPLWEFPRDRLVLGKPLGEGCFGQVVRAEAFGMDPSRPDQTSTVAVKMLKDNASDKDLADLVSEMEVMKLIGRHKNIINLLGVCTQEGPLYVIVECAAKGNLREFLRARRPPGPDLSPDGPRSSEGPLSFPALVSCAYQVARGMQYLESRKCIHRDLAARNVLVTEDDVMKIADFGLARGVHHIDYYKKTSNGRLPVKWMAPEALFDRVYTHQSDVWSFEILLWEIFTLGGSPYPGIPVEELFSLLREGHRMERPPNCPSELYGLMRECWHAAPSQRPTFKQLVEALDKVLLAVSEEYLDLRLTFGPFSPSNGDASSTCSSSDSVFSHDPLPLEPSPFPFSDSQTT

One assay concerns pEY. Kind of assay: In vitro kinase library screen: activity towards pEY. The format is biochemical. The following applies: 5 ul of expressed protein. As to the method: Proteins were produced in an in vitro transcription and translation reaction. […] The unbound components of the reaction containing endogenous kinases were removed by three washes with TT-buffer (25 mM Tris-HCl buffer pH 7.4 and 0.004% Triton), two five minutes washings with high-salt wash buffer (25 mM Tris-HCl buffer pH 7.4, 0.004% Triton, 1M NaCl and 5 mM DTT) and 3 more washes with TT-buffer. To these immobilized and purified proteins a tyrosine kinase substrate, 5 nM pEY (poly Glu-Tyr, Sigma, MO), was added in a 50 μl reaction solution containing 5 mM MgCl2, 5 mM MnCl2, 100 μM ATP, 25 mM Tris-HCl buffer pH 7.4, 0.05 mM Na3VO4, 0.004% TritonX-100, 2 mM DTT and EDTA-free protease inhibitor (Roche Molecular Biochemicals). This mixture was incubated with shaking at room temperature overnight to allow phosphorylation of the pEY substrate by the immobilized kinases. Following this incubation, 45 μl of this mixture was transferred to a streptavidin or avidin-coated NPT IPR plate coated with biotinylated anti-phosphotyrosine antibody (PY20, Zymed labs, CA) followed by incubation for 30 minutes at room temperature to allow the binding of the phosphorylated pEY substrate to the PY20 coated NPT plate. Following this binding step, 50 ng Sulfo-TAG labeled anti-phosphotyrosine in buffer containing 25 mM Tris-HCl buffer pH 7.4, 5 mM MgCl2, 0.05 mM Na3VO4, 0.004% TritonX-100, 2 mM DTT and 0.05% IgG was added followed by incubation at room temperature for 30 mm. The unbound reagents were removed by one time washing with water, and the TAG label was detected in presence of 150 μl IPR assay buffer (0.4 mM Gly-Gly buffer, pH 7.8, 1 mM EDTA, 0.1 M TPA). The ECL signals were measured using an imaging plate reader.
(§1) Proteins were produced in an in vitro transcription and translation reaction as described in the Materials and Methods. […] The reaction was stopped by mixing with BB2 buffer. Biotinylated proteins from 50 μl of the mixture (representing 0.5 μl to 5 μl of TnT reaction) were immobilized onto streptavidin or avidin coated NPT-IPR plates by shaking at room temperature for 45 min. The activity of the immobilized protein towards pEY or autophosphorylation was further assayed by the methods described in examples 7 and 8.
For B1, the HTS signal is recorded as 427,178.

B2: the HTS signal was 7,357.

In the case of B3, the HTS signal was 107,459.

In the case of B4, the HTS signal is given as 7,343.

Another assay deals with autophosphorylation (phosphotyrosine). Kind of assay: In vitro kinase library screen: autophosphorylation. Type of assay: biochemical.
Settings: not given
The method, then: Proteins were produced from DNA plasmids of Mock Luciferase, Promega, tyrosine kinase clone Spleen Tyrosine kinase (SYK, IMAGE ID# 3870426) and Eph receptor-A7 (EphA7, IMAGE ID# 3991628) (Incyte Genomics, CA) and immobilized on streptavidin or avidin coated NPT-IPR plates as described in the Example 7. To promote autophosphorylation in these immobilized and purified proteins, Mn++ ions were added in a 50 μl reaction containing 5 mM MgCl2, 5 mM MnCl2, 100 μM ATP, 25 mM Tris-HCl buffer pH 7.4, 0.05 mM Na3VO4, 0.004% TritonX-100, 2 mM DTT and EDTA-free protease inhibitor (Roche Molecular Biochemicals). This mixture was incubated with shaking at room temperature overnight to allow autophosphorylation. Following this incubation, wells were washed 2 times with TT-buffer and 2 times with water. Following this step, 50 ng Sulfo-TAG labeled anti-phosphotyrosine in buffer containing 25 mM Tris-HCl buffer pH 7.4, 5 mM MgCl2, 0.05 mM Na3VO4, 0.004% TritonX-100, 2 mM DTT and 0.05% IgG in a final volume of 50 μl was added followed by incubation at room temperature for 45 min. The unbound reagents were removed by one time washing with water, and the TAG label was detected in presence of 150 μl IPR assay buffer (0.4 mM Gly—Gly buffer, pH 7.8, 1 mM EDTA, 0.1 M TPA). The ECL signals were measured using an imaging plate reader.
as §1
In the case of B1, the ECL signal was 599,680.

As to B2, the ECL signal is reported as 28,275.

Take B3: the ECL signal is 61,364.

In the case of B4, the ECL signal is on record as 12,588.

Source of the values: patent US7063946B2, “Methods, reagents, kits and apparatus for protein function analysis” (Meso Scale Technologies, LLC., priority 2001, dated 2006).
